# B1: Carbon catabolite-derepressing protein kinase (Saccharomyces cerevisiae), P06782 (parent)
# chain: MSSNNNTNTAPANANSSHHHHHHHHHHHHHGHGGSNSTLNNPKSSLADGAHIGNYQIVKTLGEGSFGKVKLAYHTTTGQKVALKIINKKVLAKSDMQGRIEREISYLRLLRHPHIIKLYDVIKSKDEIIMVIEYAGNELFDYIVQRDKMSEQEARRFFQQIISAVEYCHRHKIVHRDLKPENLLLDEHLNVKIADFGLSNIMTDGNFLKTSCGSPNYAAPEVISGKLYAGPEVDVWSCGVILYVMLCRRLPFDDESIPVLFKNISNGVYTLPKFLSPGAAGLIKRMLIVNPLNRISIHEIMQDDWFKVDLPEYLLPPDLKPHPEEENENNDSKKDGSSPDNDEIDDNLVNILSSTMGYEKDEIYESLESSEDTPAFNEIRDAYMLIKENKSLIKDMKANKSVSDELDTFLSQSPPTFQQQSKSHQKSQVDHETAKQHARRMASAITQQRTYHQSPFMDQYKEEDSTVSILPTSLPQIHRANMLAQGSPAASKISPLVTKKSKTRWHFGIRSRSYPLDVMGEIYIALKNLGAEWAKPSEEDLWTIKLRWKYDIGNKTNTNEKIPDLMKMVIQLFQIETNNYLVDFKFDGWESSYGDDTTVSNISEDEMSTFSAYPFLHLTTKLIMELAVNSQSN
# partner: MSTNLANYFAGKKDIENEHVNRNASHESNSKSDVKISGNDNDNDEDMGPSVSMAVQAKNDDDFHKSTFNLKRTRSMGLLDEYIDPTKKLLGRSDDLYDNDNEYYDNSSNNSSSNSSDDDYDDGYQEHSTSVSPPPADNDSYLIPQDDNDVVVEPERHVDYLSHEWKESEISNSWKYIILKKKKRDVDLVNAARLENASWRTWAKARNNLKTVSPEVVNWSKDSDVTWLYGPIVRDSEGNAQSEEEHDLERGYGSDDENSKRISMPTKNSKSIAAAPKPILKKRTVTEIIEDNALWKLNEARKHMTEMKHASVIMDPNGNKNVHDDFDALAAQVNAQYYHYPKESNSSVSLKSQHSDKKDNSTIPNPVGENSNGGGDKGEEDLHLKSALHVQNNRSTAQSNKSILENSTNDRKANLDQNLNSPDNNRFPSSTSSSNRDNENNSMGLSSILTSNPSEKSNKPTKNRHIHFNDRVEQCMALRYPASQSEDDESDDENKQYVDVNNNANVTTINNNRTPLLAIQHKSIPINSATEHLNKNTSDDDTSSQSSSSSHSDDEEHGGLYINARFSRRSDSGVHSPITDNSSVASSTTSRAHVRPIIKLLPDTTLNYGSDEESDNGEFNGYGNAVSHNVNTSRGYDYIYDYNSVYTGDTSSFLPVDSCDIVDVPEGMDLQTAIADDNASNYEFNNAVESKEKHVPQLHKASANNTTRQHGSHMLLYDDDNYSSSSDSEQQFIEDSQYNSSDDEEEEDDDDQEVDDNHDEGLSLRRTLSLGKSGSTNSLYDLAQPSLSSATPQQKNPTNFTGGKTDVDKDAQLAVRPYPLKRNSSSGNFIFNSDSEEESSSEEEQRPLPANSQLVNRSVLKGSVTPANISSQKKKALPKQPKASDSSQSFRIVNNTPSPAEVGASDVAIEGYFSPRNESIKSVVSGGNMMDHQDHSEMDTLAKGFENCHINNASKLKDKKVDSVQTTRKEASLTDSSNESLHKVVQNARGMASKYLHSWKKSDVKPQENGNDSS
# Variants of: B1
# Conditions: with reg1_yeast REG1, Q00816
row,Variant,effect of a mutation on the interaction
1,K84R,with no effect

# Variants of: B1
# Conditions: with reg1_yeast REG1, Q00816
# Remark: another data set of the same source
row,Variant,effect of a mutation on the interaction
1,K84R,increasing interaction strength

# From IntAct's records for PubMed 10648618
